Experimental data published in article PMC2664085.

Columns and labels:
[1] = substrate: N[C@@H](CCC(=O)N[C@@H](CSc1ccc([N+](=O)[O-])cc1[N+](=O)[O-])C(=O)NCC(=O)O)C(=O)O; experiment: ATP-dependent uptake of 3H-DNPSG into RLIP76-proteoliposomes, filtration; assay type: biochemical, Homo sapiens; settings: ATP co-substrate, 37°C, 5 min, random bi-bi fit, labelled compound
[2] = substrate: Nc1ncnc2c1ncn2[C@@H]1O[C@H](COP(=O)(O)OP(=O)(O)OP(=O)(O)O)[C@@H](O)[C@H]1O; experiment: ATP dependence of 3H-DNPSG uptake into RLIP76-proteoliposomes; assay type: biochemical, Homo sapiens; settings: co-substrate DNP-SG, 37°C, 5 min, random bi-bi fit

B1: recombinant RLIP76 (Homo sapiens) (protein)
chain: MTECFLPPTSSPSEHRRVEHGSGLTRTPSSEEISPTKFPGLYRTGEPSPPHDILHEPPDVVSDDEKDHGKKKGKFKKKEKRTEGYAAFQEDSSGDEAESPSKMKRSKGIHVFKKPSFSKKKEKDFKIKEKPKEEKHKEEKHKEEKHKEKKSKDLTAADVVKQWKEKKKKKKPIQEPEVPQIDVPNLKPIFGIPLADAVERTMMYDGIRLPAVFRECIDYVEKYGMKCEGIYRVSGIKSKVDELKAAYDREESTNLEDYEPNTVASLLKQYLRDLPENLLTKELMPRFEEACGRTTETEKVQEFQRLLKELPECNYLLISWLIVHMDHVIAKELETKMNIQNISIVLSPTVQISNRVLYVFFTHVQELFGNVVLKQVMKPLRWSNMATMPTLPETQAGIKEEIRRQEFLLNCLHRDLQGGIKDLSKEERLWEVQRILTALKRKLREAKRQECETKIAQEIASLSKEDVSKEEMNENEEVINILLAQENEILTEQEELLAMEQFLRRQIASEKEEIERLRAEIAEIQSRQQHGRSETEEYSSESESESEDEEELQIILEDLQRQNEELEIKNNHLNQAIHEEREAIIELRVQLRLLQMQRAKAEQQAQEDEEPEWRGGAVQPPRDGVLEPKAAKEQPKAGKEPAKPSPSRDRKETSI
Km [1]: 55 ± 4 µM
Km [2]: 4400 ± 700 µM
